According to US20070292909:

How the values were obtained:
[1] = target: ECFP-(spacer) DEVD-keima 616
MiCy-DEVD-mKO = target: T1, MiCy-DEVD-mKO
T1 chain: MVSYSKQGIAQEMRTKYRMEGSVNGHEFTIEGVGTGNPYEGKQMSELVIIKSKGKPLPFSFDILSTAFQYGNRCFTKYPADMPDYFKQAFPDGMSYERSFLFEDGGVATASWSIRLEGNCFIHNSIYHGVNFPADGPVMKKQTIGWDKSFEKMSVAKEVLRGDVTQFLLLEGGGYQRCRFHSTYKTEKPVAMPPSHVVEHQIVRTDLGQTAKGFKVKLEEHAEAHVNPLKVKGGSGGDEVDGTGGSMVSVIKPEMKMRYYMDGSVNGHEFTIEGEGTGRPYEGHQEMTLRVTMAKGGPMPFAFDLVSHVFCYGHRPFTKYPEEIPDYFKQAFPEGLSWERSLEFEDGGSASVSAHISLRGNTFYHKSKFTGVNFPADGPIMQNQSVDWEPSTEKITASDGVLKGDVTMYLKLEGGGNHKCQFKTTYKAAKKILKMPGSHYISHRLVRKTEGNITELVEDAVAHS

[2] = target: keima 616-(spacer) DEVD-ECFP

B1: Caspase-3 (protein)
chain: SGISLDNSYKMDYPEMGLCIIINNKNFHKSTGMTSRSGTDVDAANLRETFRNLKYEVRNKNDLTREEIVELMRDVSKEDHSKRSSFVCVLLSHGEEGIIFGTNGPVDLKKITNFFRGDRCRSLTGKPKLFIIQACRGTELDCGIETDSGVDDDMACHKIPVEADFLYAYSTAPGYYSWRNSKDGSWFIQSLCAMLKQYADKLEFMHILTRVNRKVATEFESFSFDATFHAKKQIPCIVSMLTKELYFYH
[1]
  amplitude of the fluorescence cross-correlation function, Gcross(0): A rapid decrease in Gcross(0) was observed as a result of addition of Caspase-3
EGFP-DEVD-mRFP1 (x2)
  amplitude of the fluorescence cross-correlation function, Gcross(0): A decrease in Gcross(0) was observed as a result of addition of Caspase-3
MiCy-DEVD-mKO
  fluorescence spectrum (FRET, excitation at 440 nm) before and after the reaction with Caspase-3: after the addition thereof, FRET disappeared due to the cleavage of the linker and the fluorescence peak (559 nm) of mKO thereby disappeared, so that only the fluorescence peak (495 nm) of MiCy remained
[2]
  SDS-PAGE and Native-PAGE bands after the reaction with Caspase-3: When keima 616-DEVD-ECFP was reacted with Caspase-3, the bands with the sizes of keima 616 and ECFP could be confirmed
  amplitude of the fluorescence cross-correlation function, Gcross(0): A rapid decrease in Gcross(0) was observed as a result of addition of Caspase-3
